Results from the supplement of paper PMC7877785.
± gives the uncertainty stated by the source.

Assay: self-splicing fitness, log relative to wild type (ln ratio); higher = more splicing; Tetrahymena group I intron in knt gene, E. coli kanamycin selection, DiMSum; sequences stand for … in CUCUCU…GGAGGGAAAAGUUAUCAGGCAUGCACCUGGUAGCUAGUCUUUAAACCAAUAGAUUGCAUCGGUUUAAAAGGCAAGACCGUCAAAUUGCGGGAAAGGGGUCAACAGCCGUUCAGUACCAAGUCUCAGGGGAAACUUUGAGAUGGCCUUGCAAAGGGUAUGGUAAUAAGCUGACGGACAUGGUCCUAACCACGCAGCCAAGUCCUAAGUCAACAGAUCUUCUGUUGAUAUGGAUGCAGUUCACAGACUAAAUGUCGGUCGGGGAAGAUGUAUUCUUCUCAUAAGAUAUAGUCGGACCUCUCCUUAAUGGGAGCUAGCGGAUGAAGUGAUGCAACACUGGAGCCGCUGGGAACUAAUUUGUAUGCGAAAGUAUAUUGAUUAGUUUUGGAGUACUCGUGGUCG
In short: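 The eight P1ex-region nucleotides of an intron in the knt kanamycin-resistance gene on pET-22b(+) were all randomised and the library put into E. coli BL21(DE3). Six replicate transformations were grown overnight at 37°C or 30°C on LB agar with or without 25 μg/mL kanamycin, together with 100 μg/mL carbenicillin, 50 μM IPTG and 0.2% rhamnose. Colonies were pooled and amplicon-sequenced on an Illumina HiSeq 2500. Fitness from DiMSum is the error-weighted combination of wild-type-normalised replicate fold changes, kanamycin over none.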

Row | Sequence | self-splicing fitness (ln) (30 °C) | self-splicing fitness (ln) (37 °C)
1 | UAACAGCAAUAUUACGUUUU | -3.39 ± 0.12 | -1.7 ± 0.099
2 | UAAGAGCAAUAUUACGAACU | -2.49 ± 0.47 | 
3 | UAAGAGCAAUAUUACGACAA | -3.57 ± 0.43 | -1.79 ± 0.29
4 | UAAGAGCAAUAUUACGAGCG | -3.12 ± 0.35 | -1.54 ± 0.26
5 | UAAGAGCAAUAUUACGCAAU | -3.35 ± 0.31 | -2.32 ± 0.27
6 | UAAGAGCAAUAUUACGCACC |  | -1.93 ± 0.41
7 | UAAGAGCAAUAUUACGCAGC | -3.16 ± 0.22 | -3.49 ± 0.33
8 | UAAGAGCAAUAUUACGCAGG | -4.39 ± 0.36 | -2.2 ± 0.2
9 | UAAGAGCAAUAUUACGCAUA | -1.8 ± 0.39 | -1.59 ± 0.3
10 | UAAGAGCAAUAUUACGCCUG | -2.17 ± 0.15 | -0.85 ± 0.2
11 | UAAGAGCAAUAUUACGCGAG | -3.96 ± 0.21 | -1.85 ± 0.17
12 | UAAGAGCAAUAUUACGCGGA | -2.95 ± 0.28 | -2.35 ± 0.33
13 | UAAGAGCAAUAUUACGGCAG | -3.03 ± 0.18 | -1.38 ± 0.17
14 | UAAGAGCAAUAUUACGGCCG | -1.79 ± 0.14 | -0.743 ± 0.2
15 | UAAGAGCAAUAUUACGGCGU | -1.79 ± 0.13 | -2.39 ± 0.31
16 | UAAGAGCAAUAUUACGGGAC | -2.98 ± 0.38 | -1.86 ± 0.33
17 | UAAGAGCAAUAUUACGGUAG |  | -2.57 ± 0.35
18 | UAAGAGCAAUAUUACGGUCU | -3.26 ± 0.4 | -2.04 ± 0.24
19 | UAAGAGCAAUAUUACGUAGG | -3.24 ± 0.33 | -2.56 ± 0.3
20 | UAAGAGCAAUAUUACGUCCU |  | -2.49 ± 0.45
21 | UAAGAGCAAUAUUACGUCGG | -3.8 ± 0.29 | -2.25 ± 0.27
22 | UAAGAGCAAUAUUACGUGAU | -4.21 ± 0.34 | -2.43 ± 0.35
23 | UAAGAGCAAUAUUACGUGCG | -3.85 ± 0.42 | -0.711 ± 0.27
24 | UAAUAGCAAUAUUACGACAA | -2.23 ± 0.16 | -1.01 ± 0.14
25 | UAAUAGCAAUAUUACGACAU | -3.378 ± 0.025 | -1.95 ± 0.036

Row | Sequence | self-splicing fitness (ln) (30 °C) | self-splicing fitness (ln) (37 °C)
26 | UAAUAGCAAUAUUACGAGCA | -1.64 ± 0.16 | -1.21 ± 0.16
27 | UAAUAGCAAUAUUACGCAUC | -2.08 ± 0.49 | 
28 | UAAUAGCAAUAUUACGCAUG | -1.4 ± 0.085 | 0.553 ± 0.13
29 | UAAUAGCAAUAUUACGCCCA | -1.36 ± 0.19 | 0.129 ± 0.26
30 | UAAUAGCAAUAUUACGCCGG | -1.23 ± 0.17 | -1.05 ± 0.33
31 | UAAUAGCAAUAUUACGCCGU | -2.83 ± 0.38 | -1.97 ± 0.43
32 | UAAUAGCAAUAUUACGCUUA | -1.32 ± 0.25 | -0.932 ± 0.15
33 | UAAUAGCAAUAUUACGGCGC | -3.51 ± 0.35 | -2.42 ± 0.38
34 | UAAUAGCAAUAUUACGGCUC | -2.37 ± 0.23 | -0.201 ± 0.23
35 | UAAUAGCAAUAUUACGGGCC | -3.78 ± 0.44 | -2.52 ± 0.48
36 | UAAUAGCAAUAUUACGGUGU | -2.98 ± 0.21 | -2.93 ± 0.3
37 | UAAUAGCAAUAUUACGUCAG | -2.58 ± 0.25 | -1.56 ± 0.2
38 | UAAUAGCAAUAUUACGUGCA | -1.36 ± 0.11 | -1.34 ± 0.099
39 | UAAUAGCAAUAUUACGUGGU | -4.96 ± 0.28 | -2.75 ± 0.15
40 | UAAUAGCAAUAUUACGUGUG | -1.6 ± 0.073 | -0.917 ± 0.074
41 | UACAAGCAAUAUUACGAACC |  | -0.357 ± 0.23
42 | UACAAGCAAUAUUACGACAU | -1.474 ± 0.012 | -0.59 ± 0.032
43 | UACAAGCAAUAUUACGAGAC | -3.27 ± 0.43 | -1.43 ± 0.23
44 | UACAAGCAAUAUUACGCAGG | -2.78 ± 0.11 | -1.7 ± 0.095
45 | UACAAGCAAUAUUACGCAUC | -2.99 ± 0.16 | -2.02 ± 0.18
46 | UACAAGCAAUAUUACGCAUG | -2.07 ± 0.088 | -0.74 ± 0.086
47 | UACAAGCAAUAUUACGCCCG | 0.87 ± 0.18 | 0.761 ± 0.23
48 | UACAAGCAAUAUUACGCGCC | -1.66 ± 0.13 | -0.798 ± 0.13
49 | UACAAGCAAUAUUACGCUCG | -1.26 ± 0.088 | 0.16 ± 0.11
50 | UACAAGCAAUAUUACGGCGU | -1.14 ± 0.11 | -0.846 ± 0.098

Row | Sequence | self-splicing fitness (ln) (30 °C) | self-splicing fitness (ln) (37 °C)
51 | UACAAGCAAUAUUACGGGAG | -3.1 ± 0.12 | -1.49 ± 0.094
52 | UACAAGCAAUAUUACGGGAU | -3.65 ± 0.17 | -1.39 ± 0.11
53 | UACAAGCAAUAUUACGGGCA | -0.0705 ± 0.063 | 0.152 ± 0.072
54 | UACAAGCAAUAUUACGGGCU | -4.2 ± 0.34 | -2.82 ± 0.18
55 | UACAAGCAAUAUUACGGGUA | -1.13 ± 0.072 | -0.839 ± 0.077
56 | UACAAGCAAUAUUACGGGUU | -2.8 ± 0.091 | -1.63 ± 0.097
57 | UACAAGCAAUAUUACGGUAA | -2.12 ± 0.1 | -1.15 ± 0.1
58 | UACAAGCAAUAUUACGGUGC | -3.55 ± 0.26 | -2.35 ± 0.21
59 | UACAAGCAAUAUUACGGUUC | -3.49 ± 0.15 | -1.73 ± 0.13
60 | UACAAGCAAUAUUACGGUUU | -1.86 ± 0.093 | -0.738 ± 0.095
61 | UACAAGCAAUAUUACGUACU | -2.71 ± 0.14 | -1.45 ± 0.13
62 | UACAAGCAAUAUUACGUCCU | -1.16 ± 0.1 | 0.292 ± 0.15
63 | UACAAGCAAUAUUACGUCGC | -2.94 ± 0.11 | -2.51 ± 0.14
64 | UACAAGCAAUAUUACGUCUA | -0.798 ± 0.049 | 0.00361 ± 0.068
65 | UACAAGCAAUAUUACGUCUC | -1.68 ± 0.1 | -2.24 ± 0.17
66 | UACAAGCAAUAUUACGUGUC | -3.91 ± 0.14 | -1.15 ± 0.094
67 | UACCAGCAAUAUUACGAAUC | -2.37 ± 0.2 | -1.05 ± 0.23
68 | UACCAGCAAUAUUACGAAUG | -0.839 ± 0.055 | -0.00427 ± 0.073
69 | UACCAGCAAUAUUACGACAA | -0.483 ± 0.099 | -0.494 ± 0.09
70 | UACCAGCAAUAUUACGACAG | -1.2 ± 0.056 | -0.278 ± 0.076
71 | UACCAGCAAUAUUACGACGA | -0.586 ± 0.086 | 0.837 ± 0.11
72 | UACCAGCAAUAUUACGAGGG | -3.38 ± 0.2 | -1.3 ± 0.12
73 | UACCAGCAAUAUUACGAGGU | -3.36 ± 0.22 | -3.39 ± 0.23
74 | UACCAGCAAUAUUACGAGUG | -0.127 ± 0.052 | -0.0711 ± 0.067
75 | UACCAGCAAUAUUACGCAAG | -2.3 ± 0.13 | -0.829 ± 0.13

Row | Sequence | self-splicing fitness (ln) (30 °C) | self-splicing fitness (ln) (37 °C)
76 | UACCAGCAAUAUUACGCACC | -1.52 ± 0.26 | -0.172 ± 0.21
77 | UACCAGCAAUAUUACGCCAA | -2.05 ± 0.12 | -0.589 ± 0.099
78 | UACCAGCAAUAUUACGCGAU | -2.6 ± 0.17 | -0.608 ± 0.15
79 | UACCAGCAAUAUUACGCGCU | -3.47 ± 0.37 | -1.77 ± 0.22
80 | UACCAGCAAUAUUACGCUCU | -0.618 ± 0.072 | 0.00956 ± 0.082
81 | UACCAGCAAUAUUACGCUGG | -3.35 ± 0.18 | -2.77 ± 0.22
82 | UACCAGCAAUAUUACGCUGU | -3.86 ± 0.17 | -1.36 ± 0.13
83 | UACCAGCAAUAUUACGGCAG | -0.582 ± 0.081 | 0.685 ± 0.1
84 | UACCAGCAAUAUUACGGCGA | -0.21 ± 0.13 | 0.254 ± 0.19
85 | UACCAGCAAUAUUACGGGUG | -3.23 ± 0.097 | -1.78 ± 0.078
86 | UACCAGCAAUAUUACGGUGA | -0.536 ± 0.057 | 0.0523 ± 0.075
87 | UACCAGCAAUAUUACGUCGU | -2.09 ± 0.09 | -2.14 ± 0.12
88 | UACCAGCAAUAUUACGUGAG | -2.27 ± 0.083 | -1.56 ± 0.085
89 | UACCAGCAAUAUUACGUGAU | -1.93 ± 0.063 | -1.41 ± 0.074
90 | UACCAGCAAUAUUACGUGCC | -3.35 ± 0.24 | -0.584 ± 0.19
91 | UACCAGCAAUAUUACGUGGU | -3.86 ± 0.14 | -2.89 ± 0.16
92 | UACCAGCAAUAUUACGUGUA | -2.59 ± 0.12 | -1.67 ± 0.1
93 | UACCAGCAAUAUUACGUGUG | -1.22 ± 0.046 | -0.527 ± 0.059
94 | UACCAGCAAUAUUACGUUAG | -1.18 ± 0.068 | -1.16 ± 0.067
95 | UACGAGCAAUAUUACGACAU | -3.899 ± 0.031 | -2.47 ± 0.04
96 | UACGAGCAAUAUUACGAUGG | -2.85 ± 0.22 | -2.29 ± 0.24
97 | UACGAGCAAUAUUACGCACG | -2.94 ± 0.2 | -1.3 ± 0.18
